Results as given in US8835136B2, “Engineered amine dehydrogenases and methods of use thereof” (Georgia Tech Research Corporation, priority 2012, dated 2014).

What was measured:
Format in all cases: biochemical
[1] = Reductive amination, spectrophotometric assay at 340 nm; conditions: for Reductive amination specific activity: maximum specific activity, nonlinear fit; for Amination Activity 40 mM MIBK, kcat: 500 mM NH4Cl/NH4OH pH 9.6, 200 μM NADH, 25° C.
Procedure: (§1) Activity of purified proteins was measured using a spectrophotometric assay at 340 nm, corresponding to the cofactor nicotinamide adenine dinucleotide (NADH, ε340=6220 M^−1 cm^−1) (Dawson, et al., Clarendon Press, (1989). For reductive amination, reactions took place in 500 mM NH4Cl/NH4OH at pH 9.6, with 200 μM NADH and 20 mM of the ketone substrate, unless otherwise specified. For oxidative deamination, reactions took place in 0.1 M NaHCO3/Na2CO3 buffer at pH 10.0, with 1 mM NAD+ with 10 mM of the amine substrate of interest. All reactions were performed at 25° C. unless otherwise specified. Enzyme was added in 10 μL aliquots in dilute concentrations. Enzyme concentrations varied upon activity levels with the substrate present, but were dilute enough to ensure linear conversion kinetics over the analytical time period (10 min to 30 min). Specific activities were then calculated from the stoichiometric conversion of cofactor as determine by the change in absorbance at 340 nm over time.

[2] = Oxidative deamination, spectrophotometric assay at 340 nm; conditions: for Oxidative deamination specific activity: maximum specific activity, 1,3-DMBA; for Deamination Activity 40 mM 1,3-DMBA, kcat: 0.1M Glycine pH 10.0, 1 mM NAD+, 25° C.
Procedure: as §1, with “For oxidative deamination, reactions took place in 0.1 M NaHCO3/Na2CO3 buffer at pH 10.0, with 1 mM NAD+ with 10 mM of the amine substrate of interest.” left out

[3] = as above; conditions: 20 mM substrate
Procedure: as §1, with “For oxidative deamination, reactions took place in 0.1 M NaHCO3/Na2CO3 buffer at pH 10.0, with 1 mM NAD+ with 10 mM of the amine substrate of interest.” left out
The enantioselectivity was initially estimated by measuring the deamination activity toward individual enantiomers of methylbenzylamine (MBA). […] A preference towards (R)-MBA over the corresponding (S)-enantiomer was evident in the discrepancies between the deamination activities of 0.586 U mg^−1 and 0.002 U mg^−1, respectively. These preliminary results were corroborated through direct measurement of the enantioselectivity of the MIBK amination in producing chiral 1,3-DMBA.

[4] = Reductive amination of PFPA, spectrophotometric assay at 340 nm; conditions: 500 mM NH4Cl/NH4OH pH 9.6, 200 μM NADH; for kcat, amination of PFPA: apparent; for Km: read-out: KM, amination of PFPA
Procedure: as §1
The activity of the purified protein was evaluated using a spectrophotometric assay at 340 nm as described in Section 3.2.3 at 25° C. in various concentrations of NH4Cl/NH4OH buffer pH 9.6.
Active variants were identified by the rate of change in absorbance at 340 nm, corresponding to the fastest activity. […] Some variants consumed the cofactor too quickly (<5 min) to be observed over multiple time points, and gave low absorbance in the initial time point. These variants were included for further characterization. The successful variants were sequenced (MWG Operon), and each unique sequence was expressed in pET28a/BL21 for histag purification and determination of kcat and KM values with PFPA.

[5] = 1,3-DMBA substrate, read-out: KM (oxidative deamination)
[6] = MIBK substrate, read-out: KM (reductive amination)
[7] = purified LeuDH library 10/11 hits
[8] = purified LeuDH library 10/11 hits, read-out: Amination of MIBK KM
[9] = purified LeuDH library 10/11 hits, read-out: Deamination of 1,3-DMBA KM

B1: K67M: LeuDH single variant, library 1 (protein, listed as Bacillus stearothermophilus)
chain: ELFQYMEKYDYEQVLFCQDKESGLKAIIVIHDTTLGPALGGTRMWMYNSEEEALEDALRLARGMTYMNAAAGLNLGGGKTVIIGDPRKDKNEAMFRAFGRFIQGLNGRYITAEDVGTTVADMDIIYQETDYVTGISPEFGSSGNPSPATAYGVYRGMKAAAKEAFGSDSLEGKVVAVQGVGNVAYHLCRHLHEEGAKLIVTDINKEAVARAVEEFGAKAVDPNDIYGVECDIFAPCALGGIINDQTIPQLKAKVIAGSADNQLKEPRHGDMIHEMGIVYAPDYVINAGGVINVADELYGYNRERAMKKIEQIYDNIEKVFAIAKRDNIPTYVAADRMAEERIETMRKARSQFLQNGHHILSRRRAR
With B1 the “activity for reductive amination” value ([1]; MIBK) was 0.2 mU mg^−1, the “Reductive amination specific activity” value ([1]; MIBK) was 0.0002 U mg^−1 protein and the “activity in the oxidative deamination of racemic 1,3-DMBA” value [2] was 3.4 mU mg^−1. The “Oxidative deamination specific activity” value [2] was 0.0034 U mg^−1 protein.

B2: K67M, E113V: LeuDH-AmDH variant, SEQ ID NO:5 (protein)
chain: ELFQYMEKYDYEQVLFCQDKESGLKAIIVIHDTTLGPALGGTRMWMYNSEEEALEDALRLARGMTYMNAAAGLNLGGGKTVIIGDPRKDKNEAMFRAFGRFIQGLNGRYITAVDVGTTVADMDIIYQETDYVTGISPEFGSSGNPSPATAYGVYRGMKAAAKEAFGSDSLEGKVVAVQGVGNVAYHLCRHLHEEGAKLIVTDINKEAVARAVEEFGAKAVDPNDIYGVECDIFAPCALGGIINDQTIPQLKAKVIAGSADNQLKEPRHGDMIHEMGIVYAPDYVINAGGVINVADELYGYNRERAMKKIEQIYDNIEKVFAIAKRDNIPTYVAADRMAEERIETMRKARSQFLQNGHHILSRRRAR
In the case of B2, the “Reductive amination specific activity” value ([1]; MIBK) is reported as 0.015 U mg^−1 protein, the Km [2, 5] is reported as 48 mM and the “Oxidative deamination specific activity” value [2] is reported as 0.65 U mg^−1 protein.

B3: K67M/E113V/N261C/V290C: LeuDH-AmDH variant, SEQ ID NO:9, library 10 (protein)
chain: ELFQYMEKYDYEQVLFCQDKESGLKAIIVIHDTTLGPALGGTRMWMYNSEEEALEDALRLARGMTYMNAAAGLNLGGGKTVIIGDPRKDKNEAMFRAFGRFIQGLNGRYITAVDVGTTVADMDIIYQETDYVTGISPEFGSSGNPSPATAYGVYRGMKAAAKEAFGSDSLEGKVVAVQGVGNVAYHLCRHLHEEGAKLIVTDINKEAVARAVEEFGAKAVDPNDIYGVECDIFAPCALGGIINDQTIPQLKAKVIAGSADCQLKEPRHGDMIHEMGIVYAPDYVINAGGCINVADELYGYNRERAMKKIEQIYDNIEKVFAIAKRDNIPTYVAADRMAEERIETMRKARSQFLQNGHHILSRRRAR
In the case of B3, the Km [1, 6] is reported as 21.6 mM, the “Reductive amination specific activity” value ([1]; MIBK) is reported as 0.236 U mg^−1 protein and the “Amination of MIBK Vmax” value [1, 7] is reported as 0.236 ± 0.04. For the same molecule, the Km [1, 8] was 21.6 ± 11.5 mM, the Km [2, 5] was 14.8 mM and the “Oxidative deamination specific activity” value [2] was 1.76 U mg^−1 protein. For the same molecule, the “Deamination of 1,3-DMBA Vmax” value [2, 7] was 1.76 ± 0.20 and the Km [2, 9] was 14.8 ± 6.1 mM.

B4: K67M/E113V/N261V/V290C: LeuDH-AmDH variant, SEQ ID NO:8, library 10 (protein)
chain: ELFQYMEKYDYEQVLFCQDKESGLKAIIVIHDTTLGPALGGTRMWMYNSEEEALEDALRLARGMTYMNAAAGLNLGGGKTVIIGDPRKDKNEAMFRAFGRFIQGLNGRYITAVDVGTTVADMDIIYQETDYVTGISPEFGSSGNPSPATAYGVYRGMKAAAKEAFGSDSLEGKVVAVQGVGNVAYHLCRHLHEEGAKLIVTDINKEAVARAVEEFGAKAVDPNDIYGVECDIFAPCALGGIINDQTIPQLKAKVIAGSADVQLKEPRHGDMIHEMGIVYAPDYVINAGGCINVADELYGYNRERAMKKIEQIYDNIEKVFAIAKRDNIPTYVAADRMAEERIETMRKARSQFLQNGHHILSRRRAR
In the case of B4, the “Specific activity, (R)-MBA” value [3] is reported as 476.5 mU mg^−1 protein, the “Specific activity, (S)-MBA” value [3] is reported as 5.0 mU mg^−1 protein and the “Specific activity, acetophenone” value ([1]; 20 mM substrate) is reported as 3.5 mU mg^−1 protein. For the same molecule, the “Specific activity, cyclohexanone” value ([1]; 20 mM substrate) was 18.8 mU mg^−1 protein, the “Specific activity, ethyl pyruvate” value ([1]; 20 mM substrate) was 19.8 mU mg^−1 protein and the “Specific activity, ethyl-3-oxohexanoate” value ([1]; 20 mM substrate) was 6.4 mU mg^−1 protein. For the same molecule, the “Specific activity, methyl acetoacetate” value ([1]; 20 mM substrate) was 4.5 mU mg^−1 protein, the Km [1, 6] was 10.3 mM and the “Reductive amination specific activity” value ([1]; MIBK) was 0.089 U mg^−1 protein. The “Amination of MIBK Vmax” value [1, 7] was 0.084 ± 0.01, the Km [1, 8] was 21 ± 8.5 mM and the “Specific activity, (R/S)-MBA” value ([2]; 40 mM racemic, 20 mM of each enantiomer) was 484.0 mU mg^−1 protein. For the same molecule, the Km [2, 5] was 30.9 mM, the “Oxidative deamination specific activity” value [2] was 2.81 U mg^−1 protein and the “Deamination of 1,3-DMBA Vmax” value [2, 7] was 2.894 ± 0.44. For the same molecule, the Km [2, 9] was 33.1 ± 13 mM.

B5: K77W N276E: PheDH-AmDH double variant, SEQ ID NO:3; PheDH library 1 hit 7F10 (protein)
chain: SLVEKTSIIKDFTLFEKMSEHEQVVFCNDPATGLRAIIAIHDTTLGPALGGCRMQPYNSVEEALEDALRLSKGMTYWCAASDVDFGGGKAVIIGDPQKDKSPELFRAFGQFVDSLGGRFYTGTDMGTNMEDFIHAMKETNCIVGVPEAYGGGGDSSIPTAMGVLYGIKATNKMLFGKDDLGGVTYAIQGLGKVGYKVAEGLLEEGAHLFVTDINEQTLEAIQEKAKTTSGSVTVVASDEIYSQEADVFVPCAFGGVVNDETMKQFKVKAIAGSANEQLLTEDHGRHLADKGILYAPDYIVNSGGLIQVADELYEVNKERVLAKTKHIYDAILEVYQQAELDQITTMEAANRMCEQRMAARGRRNSFFTSSVKPKWDIRN
For B5, the “kcat, amination of PFPA” value [4] was 2.63 s⁻¹, the “kcat, amination of PFPA” value ([4]; listed as 7F10) was 2.631 ± 0.159 s⁻¹ and the Km ([4]; listed as 7F10) was 5.3 ± 0.6 mM. For the same molecule, the Km [4] was 5.32 mM.

B6: Lys77Met: B. badius PheDH single variant (protein, listed as Bacillus badius)
chain: SLVEKTSIIKDFTLFEKMSEHEQVVFCNDPATGLRAIIAIHDTTLGPALGGCRMQPYNSVEEALEDALRLSKGMTYMCAASDVDFGGGKAVIIGDPQKDKSPELFRAFGQFVDSLGGRFYTGTDMGTNMEDFIHAMKETNCIVGVPEAYGGGGDSSIPTAMGVLYGIKATNKMLFGKDDLGGVTYAIQGLGKVGYKVAEGLLEEGAHLFVTDINEQTLEAIQEKAKTTSGSVTVVASDEIYSQEADVFVPCAFGGVVNDETMKQFKVKAIAGSANNQLLTEDHGRHLADKGILYAPDYIVNSGGLIQVADELYEVNKERVLAKTKHIYDAILEVYQQAELDQITTMEAANRMCEQRMAARGRRNSFFTSSVKPKWDIRN
In the case of B6, the “Amination Activity 40 mM MIBK, kcat” value [1] is reported as 0.0009 ± 0.000 s⁻¹ and the “Deamination Activity 40 mM 1,3-DMBA, kcat” value [2] is reported as 0.0033 ± 0.000 s⁻¹.

B7: Asn276Val: B. badius PheDH single variant (protein, listed as Bacillus badius)
chain: SLVEKTSIIKDFTLFEKMSEHEQVVFCNDPATGLRAIIAIHDTTLGPALGGCRMQPYNSVEEALEDALRLSKGMTYKCAASDVDFGGGKAVIIGDPQKDKSPELFRAFGQFVDSLGGRFYTGTDMGTNMEDFIHAMKETNCIVGVPEAYGGGGDSSIPTAMGVLYGIKATNKMLFGKDDLGGVTYAIQGLGKVGYKVAEGLLEEGAHLFVTDINEQTLEAIQEKAKTTSGSVTVVASDEIYSQEADVFVPCAFGGVVNDETMKQFKVKAIAGSANVQLLTEDHGRHLADKGILYAPDYIVNSGGLIQVADELYEVNKERVLAKTKHIYDAILEVYQQAELDQITTMEAANRMCEQRMAARGRRNSFFTSSVKPKWDIRN
For B7, the “Amination Activity 40 mM MIBK, kcat” value [1] was “n.m” and the “Deamination Activity 40 mM 1,3-DMBA, kcat” value [2] was 0.0016 ± 0.000 s⁻¹.
